Results from PMC2943896, “Additional Serine/Threonine Phosphorylation Reduces Binding Affinity but Preserves Interface Topography of Substrate Proteins to the c-Cbl TKB Domain” (PLoS ONE, 2010).
Where no end group is shown, it is not given here. [ ]: non-standard residue; d: D form. pY = N[C@@H](Cc1ccc(OP(=O)(O)O)cc1)C(=O)O; pT = C[C@@H](OP(=O)(O)O)[C@H](N)C(=O)O

B1: pTyr55/pThr56 Spry2 peptide (peptide)
peptide: IRNTNE[pY][pT]EGPT
notes: Sprouty2 (Spry2), human; also called ppSpry2; pYpT-Spry2; source: synthetic peptide, bought: GL Biochem

Molecular target: T1, c-Cbl TKB domain (UniProt P22681 25-351)
T1 construct: these are not the construct limits; source: cloning, expression and purification as described previously [14]; purified
T1 sequence: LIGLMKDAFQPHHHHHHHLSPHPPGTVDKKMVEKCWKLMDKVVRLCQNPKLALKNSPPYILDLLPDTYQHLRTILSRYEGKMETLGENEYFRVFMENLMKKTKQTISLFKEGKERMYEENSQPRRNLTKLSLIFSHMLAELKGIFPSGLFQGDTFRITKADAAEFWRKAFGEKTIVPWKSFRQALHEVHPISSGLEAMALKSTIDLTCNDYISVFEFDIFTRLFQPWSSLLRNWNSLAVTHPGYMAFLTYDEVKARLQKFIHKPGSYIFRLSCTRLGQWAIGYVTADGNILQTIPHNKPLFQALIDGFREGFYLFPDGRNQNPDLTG
Conditions: both partners purified

Binder | Kd
IRNTNE[pY]TEGPT (also called pSpry2; pSprouty2) [Tyr55 phosphorylated Spry2 peptide] | 310 nM
B1 | 3830 nM
